# Experimental data: a protein production outcome set (Wang et al. 2014)
# Test: label from the status in PepcDB records
row,Sequence,protein production
1,MLPAYIKIHDAIKKEIDKGTWKIGQRLPSERDLADDYSVSRMTLRQSITLLVEEGILERRVGSGTYVASHRVQEKMRGTTSFTEIVNSQGRKPSSKLISFQRKLANETEIQKLNLSQSDYVVRMERVRYADKVPLVYEVASIPENLIKGFEQSEVTEHFFKTLTENGYEIGKSQQTIYARNASERVASHLEVNAGHAILALTQVSYFTDGKPFEYVHGQYVGDRFEFYLENN,failed
2,MLPIYTGSAIQCPMRLDAYLVEMGHFKSRGRAKTAILDGKVKVNGIAVTKVSRDVSIDDTIEVAEGLDQPQGYFKLKYVQEESGVLKPGDRVLDLGSSAGGFLLFASEIADHVKGIEFSRDFRSELGKIAYERENVEIIFGDVFTIPLKELSEEPVDVILSDMTLEPEDSIKALSRMLPLLKEGGRLLQVIKIPKKKNPKPILSRIENLGLEIQQVLSSEKQEIYVVAKRPFLEGKESTEENE,failed
3,MLPLLVGTGVLVFLLLFGDSLLQDSDSYWQIETGRWILAHGTVPTVDSFSFSKAGEPWQSSSWLAQLIFALAMQAGWAGPVIVTALAVAAALAMFTAYLERYASALVTAALALAAMVLIMPHVLARPHMLALPVMVAWFIGLIDAADRKAAPPWALLLVMALWANLHGGFVFGLMLIGPLGLEALRQAEPQRRLSLALRWAAFGIAAVAACCATPYGWGTLLAATKILSLGEVLSTLGEWASSDFSKFGTFEASLLALLGIALARGLTLPWPRLLLVLGLVHMALVHVRSIEHYALLVPMIAARPWALQLGLARKSAEAKPDLAPPAWAGVVAVIAIIAATIAAAPRLHYRFDEPQVPERALAAVQAHGAKRIFNAYIFGGYLISRHVPVFIDGRAELYGEARVMDMMRATAGRDPAALDRMLTGNDIDATMLPPSAAAVRQMDERPGWRRLYADDIAVVHVRD,failed
4,MLPSGLKETQLRESNNNQKVHPQPMEESINQNPEAMEALISNLFGNISSLKSAYIELQSAHTPYDPEKIQAADKVVISELKNLSEMKHFYRENNPKPVCVSPQDSRLAAEIQEQQSLLKTYEVMVKKFQSEIQNKDSEITQMLQKIEEANQKRLKLEKNLKLRGMSTNEGSNGDGNMQFPDLTTELYVSTYEAAAKAVHDFSKPLINMMKAAGWDLDSAANSIEPDVVYAKRPHKKYAFESYICQRMFSGFQQKNFSVNSESAAVMANDDTDTFFRQFLALKDMDPLDALGTNPDSNFGIFCRSKYLLLVHPKMEASFFGNLDQRDYVTGGGHPRTAFYQAFLKLAKSIWILHRLAYSFDPAAKIFQVKKGSEFSDSYMESVVKNIVVDEKEENPRVGLMVMPGFWIGGSVIQSRVYVSGVKVLE,failed
5,MLPTKINLIRLRRELAMLRRIRRVMEEKREVILHYITSMAAEYVRYQREVYSELERIYQNYYLGVAAEGIERARAFTAPAEGSLEVDVSTRTLFAVKTPVFSLREETVPPLPLPAGSDPKLVQSILDMRSILDKLLKLAEYEETLQRLISELKDTQRLINALDYVILPSYQNAIKFIKLVLEDRMREDFVRLKIIKRKMEAKTQLEHHHHHH,not failed
6,MLQIIFLVIGLFIIVLALSFAFKRYARLILWSSAITLFAGTLLLVGIGVINPIDGDNTGSTTFWGTIITLISGAALAFCAEMLKEGNKGKTKVQNGNSSVSGKQTADNEETVVLIGMLHTELAIKVFAKAIEAGYIGEKGSHYKWNDSKVLLAYMCGRIYCGDKPEYSEMDEKSYWKFGRMGVFPDTELSNLFEMPDLGQSRSNRKDLAVPAKSKEIDKFFE,failed
7,MLQRIGLIFLHNIVVVSNCFYFQAFLDEFTNWSRINPNKARIPMAGDTQGVVGTVSKPCFTAYEMKIGAITFQVATGDIATEQVDVIVNSTARTFNRKSGVSRAILEGAGQAVESECAVLAAQPHRDFIITPGGCLKCKIIIHVPGGKDVRKTVTSVLEECEQRKYTSVSLPAIGTGNAGKNPITVADNIIDAIVDFSSQHSTPSLKTVKVVIFQPELLNIFYDSMKKRDLSASLNFQSTFSMTTCNLPEHWTDMNHQLFCMVQLEPGQSEYNTIKDKFTRTCSSYAIEKIERIQNAFLWQSYQVKKRQMDIKNDHKNNERLLFHGTDADSVPYVNQHGFNRSCAGKNAVSYGKGTYFAVDASYSAKDTYSKPDSNGRKHMYVVRVLTGVFTKGRAGLVTPPPKNPHNPTDLFDSVTNNTRSPKLFVVFFDNQAYPEYLITFTA,failed
